Experimental data: PMC8409056

Key:
[1] = target: SARS-CoV-2 spike RBD-Fc fusion (SARS-CoV-2, UniProt P0DTC2 319-541); experiment: ELISA on aptamer-coated gold slide
[2] = target: SARS-CoV-2 spike S1 subunit (SARS-CoV-2, UniProt P0DTC2 16-685)

B1: CoV-2-RBD-4C aptamer (Aptamer-4C) (structured_DNA)
DNA: ATCCAGAGTGACGCAGCATTTCATCGGGTCCAAAAGGGGCTGCTCGGGATTGCGGATATGGACACGT
modifications: 5'-thiol, immobilized on gold
B1: binds [1]; binds [2].
